Experimental data reported in article PMC12090727.

These substances were tested against HA-hFc probe: H1N1 A/California/04/2009 HA ectodomain fused to human IgG1 Fc (assay: flow cytometry on cells). Conditions: parent: est. 1.0; read off a plot.

Row | Substance | ratio to parent
1 | Flag-tagged fTfR-5J8 receptor, WT (Flag+) (from UniProt Q9MYZ3) D100bL | 0.28
2 | Flag-tagged fTfR-5J8 receptor, WT (Flag+) (from UniProt Q9MYZ3) I93A | 0.98
3 | Flag-tagged fTfR-5J8 receptor, WT (Flag+) (from UniProt Q9MYZ3) I93D | 0.97
4 | Flag-tagged fTfR-5J8 receptor, WT (Flag+) (from UniProt Q9MYZ3) N32A | 0.94
5 | Flag-tagged fTfR-5J8 receptor, WT (Flag+) (from UniProt Q9MYZ3) R97A; P100aA; I93A | 0.42
6 | Flag-tagged fTfR-5J8 receptor, WT (Flag+) (from UniProt Q9MYZ3) R97H | 0.84
